Values joined by “and” are separate entries in the source; they are usually repeats but may differ in a detail not shown here. Equal values may be shown once.
Experiments:
[1] = molecular target: Cys to Ser mutant 2CPB C53S/C175S, tag-free (Arabidopsis thaliana); test: nonreducing SDS/PAGE (redox shift visualization); 1 μM (Fig 1) or 1.5 μM (Fig S2) recombinant 2CP incubated with/without 1 mM GSH (50 mM Tris-HCl pH 7.5, 25°C, 30 min), nonreducing SDS/PAGE, Coomassie stain (anti-GSH Western blot in Fig S2); oligomer size read from gel mobility; self-association
[2] = molecular target: the molecule itself; test: nonreducing SDS/PAGE with Western blot of plant extracts; total leaf protein extracts of Arabidopsis (WT Col-0, 2cpa, 2cpb, cyp20-3; untreated or 0, 3, 6 h post wounding), nonreducing SDS/PAGE, Western blot with anti-2CPA or anti-GSH antibody; oligomer size read from gel mobility
[3] = molecular target: the molecule itself; test: nonreducing SDS/PAGE (redox shift visualization); 1 μM (Fig 1) or 1.5 μM (Fig S2) recombinant 2CP incubated with/without 1 mM GSH (50 mM Tris-HCl pH 7.5, 25°C, 30 min), nonreducing SDS/PAGE, Coomassie stain (anti-GSH Western blot in Fig S2); oligomer size read from gel mobility; self-association
[4] = molecular target: the molecule itself; test: nonreducing SDS/PAGE (redox shift visualization); 1 μM tag-free 2CP incubated with 1 mM GSH and 0.1% (vol/vol) Triton X-100 (partial denaturation), nonreducing SDS/PAGE, Coomassie stain; self-association
[5] = molecular target: the molecule itself; test: nonreducing SDS/PAGE (redox shift visualization); 1.5 μM 2CP^GS incubated with CYP20-3 (0-5 μM) at 42°C for 15 min, nonreducing SDS/PAGE, Coomassie stain and anti-GSH Western blot; self-association of the 2CP after the treatment

With “Cys to Ser mutant 2CPB C53S/C175S, tag-free (enzyme)” the stoichiometry N [1] was 10.

B1: endogenous GSH-glutathionylated 2CPA (2CPA^GS) in Arabidopsis leaf extracts (enzyme, UniProt Q96291 66-266, looked up)
chain: KAQADDLPLVGNKAPDFEAEAVFDQEFIKVKLSDYIGKKYVILFFYPLDFTFVCPTEITAFSDRHSEFEKLNTEVLGVSVDSVFSHLAWVQTDRKSGGLGDLNYPLISDVTKSISKSFGVLIHDQGIALRGLFIIDKEGVIQHSTINNLGIGRSVDETMRTLQALQYIQENPDEVCPAGWKPGEKSMKPDPKLSKEYFSAI
modifications: S-glutathionylated (as the paper names it: 2CPA^GS)
notes: 2-Cys peroxiredoxin A (2CPA), Arabidopsis thaliana, At3g11630, endogenous plastid protein; Bands in WT extracts detected with 2CP antibody and put down to 2CPA^GS by the authors; source: endogenous, Arabidopsis (Col-0) leaf total protein extract
With B1 the “stoichiometry N” value [2] was 2.

B2: His-tagged GSH-glutathionylated 2-Cys peroxiredoxin B (His-tagged 2CPB^GS) (enzyme, Arabidopsis thaliana, UniProt Q9C5R8 73-273, looked up)
chain: KAQADDLPLVGNKAPDFEAEAVFDQEFIKVKLSEYIGKKYVILFFYPLDFTFVCPTEITAFSDRYEEFEKLNTEVLGVSVDSVFSHLAWVQTDRKSGGLGDLNYPLVSDITKSISKSFGVLIPDQGIALRGLFIIDKEGVIQHSTINNLGIGRSVDETMRTLQALQYVQENPDEVCPAGWKPGEKSMKPDPKLSKEYFSAI
modifications: S-glutathionylated by GSH (mixed disulfide GS-S on a Cys)
notes: C53 is C126 and C175 is C248 in Q9C5R8; Tagged version cloned BamHI/HindIII into pET28a; source: E. coli BL21 (DE3), purified (Ni-NTA), incubated with GSH
With B2 the “stoichiometry N” value [3] was 20 and 10.

B3: GSH-glutathionylated 2-Cys peroxiredoxin A (2CPA^GS), tag-free recombinant (enzyme, Arabidopsis thaliana)
chain: GSHMKAQADDLPLVGNKAPDFEAEAVFDQEFIKVKLSDYIGKKYVILFFYPLDFTFVCPTEITAFSDRHSEFEKLNTEVLGVSVDSVFSHLAWVQTDRKSGGLGDLNYPLISDVTKSISKSFGVLIHDQGIALRGLFIIDKEGVIQHSTINNLGIGRSVDETMRTLQALQYIQENPDEVCPAGWKPGEKSMKPDPKLSKEYFSAI
modifications: S-glutathionylated by GSH (mixed disulfide GS-S on a Cys; the discussion names the resolving Cys, CR^53)
notes: four nonnative residues (Gly, Ser, His, Met) left at the N terminus after thrombin removal of the His-tag; C53 is C119 and C175 is C241 in Q96291; source: E. coli BL21 (DE3), purified (Ni-NTA), His-tag removed with thrombin, incubated with GSH; not shown: His-tag, N-terminal, cleaved
B3 was tested, and the “stoichiometry N” value [3] was 2 and the “stoichiometry N” value [4] was 10.

B4: GSH-glutathionylated 2-Cys peroxiredoxin B (2CPB^GS), tag-free recombinant (enzyme, Arabidopsis thaliana)
chain: GSHMKAQADDLPLVGNKAPDFEAEAVFDQEFIKVKLSEYIGKKYVILFFYPLDFTFVCPTEITAFSDRYEEFEKLNTEVLGVSVDSVFSHLAWVQTDRKSGGLGDLNYPLVSDITKSISKSFGVLIPDQGIALRGLFIIDKEGVIQHSTINNLGIGRSVDETMRTLQALQYVQENPDEVCPAGWKPGEKSMKPDPKLSKEYFSAI
modifications: S-glutathionylated by GSH (mixed disulfide GS-S on a Cys)
notes: four nonnative residues (Gly, Ser, His, Met) left at the N terminus after thrombin removal of the His-tag; C53 is C126 and C175 is C248 in Q9C5R8; source: E. coli BL21 (DE3), purified (Ni-NTA), His-tag removed with thrombin, incubated with GSH; not shown: His-tag, N-terminal, cleaved
With B4 the “stoichiometry N” value [3] was 20 and the “stoichiometry N” value [5] was 10.

B5: 2-Cys peroxiredoxin B (2CPB), tag-free recombinant, not glutathionylated (enzyme, Arabidopsis thaliana)
chain: GSHMKAQADDLPLVGNKAPDFEAEAVFDQEFIKVKLSEYIGKKYVILFFYPLDFTFVCPTEITAFSDRYEEFEKLNTEVLGVSVDSVFSHLAWVQTDRKSGGLGDLNYPLVSDITKSISKSFGVLIPDQGIALRGLFIIDKEGVIQHSTINNLGIGRSVDETMRTLQALQYVQENPDEVCPAGWKPGEKSMKPDPKLSKEYFSAI
notes: four nonnative residues (Gly, Ser, His, Met) left at the N terminus after thrombin removal of the His-tag; C53 is C126 and C175 is C248 in Q9C5R8; also called 2-CysPRX B; 2CP isoform B; source: E. coli BL21 (DE3), purified (Ni-NTA), His-tag removed with thrombin; not shown: His-tag, N-terminal, cleaved
In the case of B5, the “stoichiometry N” value [3] is reported as 10 and 20.

B6: 2-Cys peroxiredoxin A (2CPA), tag-free recombinant, not glutathionylated (enzyme, Arabidopsis thaliana)
chain: GSHMKAQADDLPLVGNKAPDFEAEAVFDQEFIKVKLSDYIGKKYVILFFYPLDFTFVCPTEITAFSDRHSEFEKLNTEVLGVSVDSVFSHLAWVQTDRKSGGLGDLNYPLISDVTKSISKSFGVLIHDQGIALRGLFIIDKEGVIQHSTINNLGIGRSVDETMRTLQALQYIQENPDEVCPAGWKPGEKSMKPDPKLSKEYFSAI
notes: four nonnative residues (Gly, Ser, His, Met) left at the N terminus after thrombin removal of the His-tag; C53 is C119 and C175 is C241 in Q96291; also called 2-CysPRX A; 2CP isoform A; source: E. coli BL21 (DE3), purified (Ni-NTA), His-tag removed with thrombin; not shown: His-tag, N-terminal, cleaved
In the case of B6, the “stoichiometry N” value [5] is reported as 2.
